These results are taken from the domain aggregation screens of Martell et al. (2025).

A short description of the data set: soluble fraction after stress (log2 fold change); higher = more stays soluble; pooled small domains, quantitative proteomics. To be noted: stress: 50 degC. The method in brief:
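Pooled custom libraries of small protein domains were measured in a high-throughput format, with quantitative proteomics as the read-out. Each library was stressed at 50°C. Aggregation propensity is given as the base-two logarithm of the fold change in how much of each protein stays soluble after the stress. Higher values mean a larger share of the protein remains in solution.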

In the case of “HMRAVPTKLAPFVEVLKAMLEADGHRPKAQRRTAKALHLELISRGYAGGYTRLTDYIRDWRQQQG”, the “soluble fraction (log2)” value was -2.34. As to “HMNPGAYQVKAGEGLIGLSRRYNVPVDVLASVNNLNTTSSLRVGQTITIPTAAQVNRITQQAQ”, the “soluble fraction (log2)” value was 0.287. To “HMSSKIKYSEFITMLDKGEVESVVLKSDTLTITLKHGTGVAAQTKTTTLMEDLSELTKRLEKAGIKDFDK” belongs 0.0396; to “HMDNIEIGNRIREIRIKKNISVFELAYRTKTSQSHIYQIEGGSQNMSIELLFKIADTLETDPNTILGV”, -3.78. With “HMVSIGSQVAKRRRELRLTQQNLAEKMGVSFQAISSWEREEFLPDINKLQKLAAILNTKISYLLEE”, the “soluble fraction (log2)” value was -1.3. For the sequence “HMTDGLTVPMQGVVIRYKAKKGDKVAVGDAVAVLEAMKMEQNIFANKSGTIKEIYIKEGTTVTPGDVLMSI”, the “soluble fraction (log2)” value was -0.0052. Turning to “HMLKAKKIPVSDLEKFKGIVAEDVVSKAKALILPRGSNLSWLSNVAKKNLIAKLKAEGIEYISVYSS”, the “soluble fraction (log2)” value came to 0.134. For “HMAEANTEADFVAIGVRAELLPILQKLGVHTIEQLKGIKATKLFNDIPGMRKKLKLDAVQNPTLQEIEGWL”, the “soluble fraction (log2)” value worked out at 0.00541.

“HMGKSDDSLAAEKFIQHVRKNGELSYEQAYRMVHAYFPDFRNFEGMVSGAVKSGYLILIQKSTGLFLRAKE”: the “soluble fraction (log2)” value is -0.882. Turning to “HMDIDLGAVEEQAVKGSGPGGQKMNKTSSGVLLRYRLGEELVLVKWTRERQHSLNRFLALRELVDEIEAR”, the “soluble fraction (log2)” value was no less than 0.62.

Take “HMTTMNSADLIKELEKAGWTLRGVKGSHHIYTHPARGGHLSVPHPKKDLGAGLARQLRKQAGL”: the “soluble fraction (log2)” value was 0.125. With “HMKNISSEEDREKALSLGITQEFIDNKGRYFITVPNKPSNFKEQALNIQKEISEQIDTVINKRFEF” the figure was -0.0173; with “HMVTDTGEIEAIIDRVISENPDSVSDFKNGKERALKFLMGQAMKESKGKANPQIVNELLLKKL”, 0.264; with “HMDDKVGKVFNYVQEKILTGEWDIGDKITPEISLSKELGVSRSVVREAIKKFVALNILSRTQGGGTYVNNL”, -0.515.

Turning to “HMLRIIDYNRVVKDLNGLTPEQLLEKLAESFTVEDKGTEEYRPTELHNFSMYLGGHWYSLTAKPGTYDDND”, the “soluble fraction (log2)” value is -0.937.

With “HMNSEERVLDTASKWLVKLDEGLDESEAQVLKVWLATPLHRDTFLEMVALWDKMSVLNELADIV”, the “soluble fraction (log2)” value is -1.78. For the sequence “HMQDNPELVARIEKAAARGTSSMSDWERSFMGSLLDSAKKWGRLTAKQHEVFQRIEKKTDPAHQAAVS”, the “soluble fraction (log2)” value is 0.0476.

On to “HMSNFGERLRALRQDRQMTLQQASKVTGVAQSTLSKMENNQLSPTFNLMQKLAIGLGIDMPQLFAPVK”, for which the “soluble fraction (log2)” value is -0.108.

“HMNPIEAQIEELKNKDQKTAYQALKHLLAISETRAEVSYYFDRFVALLQDPQSYVRTRGLLLIGA”: the “soluble fraction (log2)” value was 0.271.

On to “HMTFDWAAYEISEKEIRVMSLVAEGFSNKEIAQELFLSEGTVRNYISNILEKLGLRDRTQLAVHYLKAV”, for which the “soluble fraction (log2)” value is -1.28. For the sequence “HMEMELNHVARRAGRLSGFLKGELRLSTGLMNRLKWSNAILVNGKPARTNAQVEPGDRITVILD”, the “soluble fraction (log2)” value is -0.976. Regarding “HMYVADVVGMGIKDALYILENQGLRVVFTGKGVVKNQSIAVGEKIIKGEKIVLML”, the “soluble fraction (log2)” value was -1.7. With “HMTELVIPDYFSKALAKNKKAKQVFEAFAYSHRKEYLQWITEAKTEETRNKRMATAIEWIAEGKGRNWKYA” the figure was -1.69.

As for “HMTEALEFTVEDLRMAGLVNSSFSRRRRELFSEKLGIGYGNGKSLLKKLNGYGITREEFNGAIQSLSD”, the “soluble fraction (log2)” value is -0.747. For the sequence “HMSNIQLAANLQRLRKDHHFTQTQFSKKLNISRQAYSNYETGKRIPDLDIIIRIANIYHISLENLL”, the “soluble fraction (log2)” value is -0.389. As for “HMGKMTSTLGVHIAAYRKEHGETVAQFASRSGVSVSSIRRIESGISDPSADLVWKISRHMGMTMDDLFKKM”, the “soluble fraction (log2)” value was -3.87. As to “HMDLPREKRIEIGLTYIYGIGLKTSQKILAATGIDPNTRVKDLDETTVSKLREYIDHNYRVEGELRS”, the “soluble fraction (log2)” value is -0.504. To “HMKPPTIELSYSEFIELVERGKVSKVIFSSDNYTLKGETVNGENFETVRPPFLEDNLSEILTIHKVPVSSE” belongs -0.208; to “HMGLQLTPVRRRVLEILLHEHRALGAYDILDKLRSEGLGSQPPVAYRALDFLVTHGFAHKIERLNAF”, -0.609. With “HMSGTMYATAEVNVRSTYSSDGTIYGTLSKGTAVEITGTTDNGWVRVKYNGTTAYVYADYLSWKAP” the figure was -0.671. Regarding “HMGGQFVKVEVIAQIFGVTVRRVQQLTQEGVVKTTEIPGEGRRYELVPTIKTYIQYLSDKAY”, the “soluble fraction (log2)” value is -4.01. As to “HMTLHDLFPQAVEFVSEKEMISTAELQRKLMISYNSAAKIIDQLLHVDFIQKSESAGKYSVLIK”, the “soluble fraction (log2)” value is -2.31. Take “HMKGTSIELIVPQDIAGLRLDQVLAKLLPQWSRSRLQSWINEKHITVNGQTTTAKQKLWGNETIQIIPPI”: the “soluble fraction (log2)” value was -0.66.

With “HMRTPLTGREEQVATLIGRGMTNSEIAESLSVDESTVKTHIGSILRKVHLRDRLQVALWFHGLPIE”, the “soluble fraction (log2)” value is -0.495. As for “HMFIEPPSLEELERRLRGRGTETDDVVDMRMRTALVELSQKMEYDYRLVNDDLDEATRQLVAYVNEIAEQ”, the “soluble fraction (log2)” value is 0.0568. To “HMTRTEYMAQLEKYLKKLPHKEFQEAITFFNEYFDEAGPEKETAIMEELGSPKEAASELITNILNRHI” belongs -0.149; to “HMETVMYLRQIKRPQGIYLAIQESYYDSSKKQSRTRTIESIGYLDNLRKEYEDPIAFFSQKAAAMTSEKKK”, -1.51; to “HMSSSMDAIAEIIRSIPRGDHLTAPEVYELAKQRGLKLSLSTVYRTLNKLKVVGDVITVSGDRGLRYESV”, -0.181. In the case of “HMLEEIDYPEEQLQLLFAWSRDHVQSTPPGLPVVDDHVWHILVRGYGATDQRTEAFALLASYAGFP”, the “soluble fraction (log2)” value was -0.0919. To “HMVPHTTSMVAEVQERLFNLNYDPGPINGRMDQATITAITRFQRNFSLPQTGQIDEGFLNTLRDARL” belongs -0.981. To “HMGQYSTTLDKIENSLFGFTYSNEAENTRINRIENKVYGKTSTSQTSTRIAKLKKDLSVDEMG” belongs 0.0362.

In the case of “HMRGFTDFEHIEKEYLATIEKLNWPDGVTLPDKLEGEDTGTSFQVGYGDTRASNLWEYSWMK”, the “soluble fraction (log2)” value was -0.0186. With “HMSKYGIAYSEVLEILKHIPIEDYNKIPRNEIELFETYADKDFTFNYDSSKTLEEQNVSNITKGIIIL”, the “soluble fraction (log2)” value was -0.103.

Consider “HMGIGSTLTDGVRVYASDDEIVVNAPAESDVRIFNAGGAQLYAGRVADVRVAVAKGLYVVTVDGRSTKITV”, for which the “soluble fraction (log2)” value was 0.00295. To “HMENITTILRSIKNEIKKNSTFVGDDFVNQARSMNQGQIKEKSIYGHGTKKEIEELRDEGVDVLNIPWIT” belongs -0.162.

As for “HMLGYGEQEREAQKYLEMHTAFQADPSLQKMYLPENQYALISKVMEMTGIKNVKSYLTPPNEL”, the “soluble fraction (log2)” value was -0.0174. “HMSNPPIRIGKKALHELLTTWLSLLSRDGVAYLVVQKNLGADSLTAWLRDQGFPSEKIASKKGFRIIEVH”: the “soluble fraction (log2)” value was -0.245. As for “HMGMTTSILDDVIGMGPKRKKALLKAFGSFGALRNATLEEIKQTHTVPEQVAEDVYAVLVQYNSKSE”, the “soluble fraction (log2)” value is -0.233. Consider “HMSTANIVVPDVKGKTFEEAKKAIEAEGLTAKAEGDESGVVQKTSPSYGVSVESGSEVTLTLVKSDD”, for which the “soluble fraction (log2)” value is -0.0409.

Consider “HMKLLLSANISKLRKKYSMTQEQLAEALGVTFASVSKWERGVATPELKLIAEMADMFEVSIDALIGYEFRN”, for which the “soluble fraction (log2)” value is -1.39. With “HMGSIGAMLSSPELYGKLATNPATRGFLSQPDFIAMLTDVQKNPDKFGSYMSDPRMMQVLSVALG”, the “soluble fraction (log2)” value was found to be 0.118. “HMKKTTEFAVTPEFQQRLEASPELKAAFQALTPGRQRAHLLFFAAPKQAQTRQARIEKSLPQIMAGKGLN”: the “soluble fraction (log2)” value is -0.184. For “HMGEVISRSYPLLKTKAKPAEVSEALQKLIKAPATVTFDEKNEVFHINATRLQHTWAEGYFKGLHGK”, the “soluble fraction (log2)” value worked out at 0.0333. As for “HMKGIHDYITKDGLRVVKVHYSADPDKDVTTVEGKKWMAKALLGYPGGLEGAKWRREMEIDFNA”, the “soluble fraction (log2)” value was -0.0848. For “HMQGEVPYSQFLTEVDRGDVQSVVIEGNNISGFYKNSSTAFTVVAPDDPKLVERLMEQGVEVKARPV”, the “soluble fraction (log2)” value came out at 0.0205. In the case of “HMLNMTLGDRIRSRREELRMSQEELATRLGYKSRSTIAKIESGENDLTQSKIVAFAEALSTTARWLLDY”, the “soluble fraction (log2)” value was -1.04. As for “HMDPQDGTVKFFNGARGFGFITPDGGGADVFVHVSAVERAGLTQLVEGQRVNFQTLPDTKGKGPKAVNLKV”, the “soluble fraction (log2)” value amounted to 0.0729. As for “HMQDGTILPGQKTAIRSLATSGGYDSQDLDTYLATTYGKSIDGLTRTEGADVIKAFQAGTVAK”, the “soluble fraction (log2)” value worked out at 0.233. For “HMALLKRQDEILMYLYTQNKWITGNELAQLFHVSLRTIRNDISFINTEKSNSVLSNRNKGYHIAKDFVYNE”, the “soluble fraction (log2)” value was -0.924. For the sequence “HMQNGNLVDVYLNWRGKYYAIKMFFPNSKMPRRSDVQDQIVKVYPDARVQSFQVSKYVPGQPFL”, the “soluble fraction (log2)” value is -1.62. Regarding “HMAPDYYALLGVPRNATTAEVRKAFRGKALEQHPDRGGDEESFRLLSKAYDVLSDSERRKYYDRTG”, the “soluble fraction (log2)” value stood at 0.0767. In the case of “HMLPYGDRRRHTDNTISRIRELAAALDDSGIADRLNQDGYVTPEGKPFTYAGVRWIRYKYDISGPYERN”, the “soluble fraction (log2)” value is -1.5. Regarding “HMLTGDVDRYKDFFIALEKTSPVPIGFEKIIGGAHGYYHLEDKRIAIDEGMSELQTLKTAIHEIAHAKLHD”, the “soluble fraction (log2)” value was -0.14. Take “HMEEEDELALFLREERKNYDLTLTDVHEKTGIPQKVLKEFQWGDAQLTDRQRYTLTQYVEEAREYFQENA”: the “soluble fraction (log2)” value stood at 0.0369. “HMIELTTDYKKRVVEALVSARENYSGSDSDFARKWSIDKTVYSRLKKGYQEGLLSVGKYIELGMELNVSSR”: the “soluble fraction (log2)” value is -1.34.

Consider “HMDIMTVGERVKKLAEKQGISLRELAKKAELSYNTVYSITRRGSERVAPDTISRLANALGVNVNELT”, for which the “soluble fraction (log2)” value turned out to be 0.0708. With “HMADTPQAYIRQMVQEAGADGIMLSTITDRLRARFKDFKVRDLGYAQMRQYMASTGTYDLEKSGRNFRVHL” the figure was -0.935. Take “HMSTANISIEQAKEIALNHANLTSNQVIFSRTELDYDNGIQKYEVEFYYNNREYSYEINANTGDILGYEQ”: the “soluble fraction (log2)” value is -0.148. On to “HMGPIITKTYNLSYATARDVNDIIKSKKSARGDIVIDTRTNSLIVSDVQEKIDLIDEIVATL”, for which the “soluble fraction (log2)” value is -0.27.
